Assay results: patent publication US11072643B2, “Fusion protein” (ADVANCECOR GMBH, priority 2017, dated 2021)
Entries after “also recorded” stand apart in the source; their conditions may differ.

B1: GPVI-CD39: fusion protein of extracellular domain of platelet glycoprotein VI, Fc of human IgG2 and extracellular domain of human CD39, 15 amino acid linker (SEQ ID NO: 1) (protein, listed as Homo sapiens)
chain: QSGPLPKPSLQALPSSLVPLEKPVTLRCQGPPGVDLYRLEKLSSSRYQDQAVLFIPAMKRSLAGRYRCSYQNGSLWSLPSDQLELVATGVFAKPSLSAQPGPAVSSGGDVTLQCQTRYGFDQFALYKEGDPAPYKNPERWYRASFPIITVTAAHSGTYRCYSFSSRDPYLWSAPSDPLELVVTGTSVTPSRLPTEPPSSVAEFSEATAELTVSFTNKVFTTETSRSITTSPKESDSPAGPARQYYTKGNGGRVECPPCPAPPVAGPSVFLFPPKPKDTLMISRTPEVTCVVVDVSHEDPEVQFNWYVDGVEVHNAKTKPREEQFNSTFRVVSVLTVVHQDWLNGKEYKCKVSNKGLPAPIEKTISKTKGQPREPQVYTLPPSREEMTKNQVSLTCLVKGFYPSDIAVEWESNGQPENNYKTTPPMLDSDGSFFLYSKLTVDKSRWQQGNVFSCSVMHEALHNHYTQKSLSLSPGKGGGGSGGGGSGGGGSTQNKALPENVKYGIVLDAGSSHTSLYIYKWPAEKENDTGVVHQVEECRVKGPGISKFVQKVNEIGIYLTDCMERAREVIPRSQHQETPVYLGATAGMRLLRMESEELADRVLDVVERSLSNYPFDFQGARIITGQEEGAYGWITINYLLGKFSQKTRWFSIVPYETNNQETFGALDLGGASTQVTFVPQNQTIESPDNALQFRLYGKDYNVYTHSFLCYGKDQALWQKLAKDIQVASNEILRDPCFHPGYKKVVNVSDLYKTPCTKRFEMTLPFQQFEIQGIGNYQQCHQSILELFNTSYCPYSQCAFNGIFLPPLQGDFGAFSAFYFVMKFLNLTSEKVSQEKVTEMMKKFCAQPWEEIKTSYAGVKEKYLSEYCFSGTYILSLLLQGYHFTADSWEHIHFIGKIQGSDAGWTLGYMLNLTNMIPAEQPLSTPLSHST
B2: GPVI-Fc: dimeric soluble glycoprotein VI-Fc fusion protein (Revacept), Fc derived from human IgG1, in clinical investigation (protein)
chain: QSGPLPKPSLQALPSSLVPLEKPVTLRCQGPPGVDLYRLEKLSSSRYQDQAVLFIPAMKRSLAGRYRCSYQNGSLWSLPSDQLELVATGVFAKPSLSAQPGPAVSSGGDVTLQCQTRYGFDQFALYKEGDPAPYKNPERWYRASFPIITVTAAHSGTYRCYSFSSRDPYLWSAPSDPLELVVTGTSVTPSRLPTEPPSPVAEFSEATAELTVSFTNEVFTTETSRSITASPKESDSPAGPARQYYTK
modifications: left off: a dimerising Fc or GST
notes: dimeric soluble glycoprotein VI-Fc fusion protein (Revacept), Fc derived from human IgG1, in clinical investigation

Columns and labels:
[1] = system: Citrated blood of healthy donors; experiment: In vitro closure time with Innovance PFA-200; type: cell-based; settings: human blood ex vivo; for PFA-200 closure time, COL/ADP cartridges / PFA-200 closure time, COL/EPI cartridges: GPVI-CD39 21.7 to 217 nmol/L, versus PBS buffer control
Description: (§1) Informed consent was obtained as approved by the local Ethics Committee. An overall number of 58 healthy volunteers was included into the study: blood samples from 39 subjects were taken for in vitro experiments using vascular agonists, and blood samples from 19 subjects for experiments involving human plaque material.
Citrated blood of healthy donors was mixed with antagonist in concentrations indicated in the figures, and added to Dade® PFA COL/EPI, Dade® PFA COL/ADP, or Innovance® PFA P2Y test cartridges (Siemens Healthcare, Erlangen, Germany). Blood was aspirated under high shear conditions (>5000/s) through a capillary onto a membrane with a small aperture coated with substances which activate platelets and lead to closure of this aperture. The time until closure of this aperture is monitored and expressed as in vitro closure time with a maximum closure time of 300 s.

[2] = ADPase activity of purified protein (Malachite Green phosphate detection); type: biochemical; settings: purified protein at various concentrations, 200 μM ADP, 37° C., pH 7.5
Description: (§2) Various concentrations of GPVI-CD39 or solCD39 protein or plasma samples from the pharmacokinetic study diluted 1:500-1:2000 in assay buffer were incubated in 25 mM Tris-HCl, 5 mM CaCl2, pH 7.5 with 200 μM ADP in a total volume of 100 μl for 30 min or 5 min at 37° C. Enzymatically released Pi was detected using the Malachite Green Phosphate Detection Kit (R&D Systems, Minneapolis, Minn.) according to the supplier's manual. A serial dilution of Pi standard was analyzed in parallel which facilitates quantification of released Pi. Absorbance was measured at a wave length of 630 nm using a Tecan Infinite 200 ELISA reader. Enzymatic activity of purified protein was calculated taking incubation time and protein amount into account and expressed as Units per mg of protein.

[3] = system: human platelets; experiment: Platelet aggregation in human blood under static conditions (Multiplate impedance aggregometry); type: cell-based; settings: for inhibition of ADP-induced platelet aggregation: 6.5 μM ADP, equimolar concentrations; for inhibition of ADP-induced platelet aggregation / inhibition of collagen-induced platelet aggregation: human blood; for inhibition of platelet aggregation triggered by human plaque material: same concentrations
Description: as §1
The effect of GPVI-CD39 and control proteins on platelet aggregation was analyzed using the Multiplate® device (25). 1:1 diluted hirudin-anticoagulated blood was pre-incubated with antagonist for 3 min in the test cell without stirring to avoid platelet pre-activation (26). Agonist was added and samples were incubated for 6 min at 37° C. with stirring. The following agonists were used: 6.5 μM ADP, 12 μg/ml collagen isolated from rabbit aorta, or 103 μg/ml collagen type I secreted by human fibroblasts (VitroCol®, Advanced BioMatrix, San Diego, Calif.). Platelet aggregation was measured in arbitrary units over the time period (arbitrary units (AU)*min) (cumulative aggregation values).

[4] = system: platelets; experiment: Plaque-induced platelet aggregation under flow; type: cell-based; settings: 150 nM GPVI-CD39
[5] = system: C57BL/6J wild type mice; experiment: In vivo thrombus formation after FeCl3 injury in carotid arteries; design: species or system mouse
Description: For examination of arterial thrombus formation in vivo, 6-8 weeks old C57BL/6J wild type mice were anesthetized by injection of midazolame (5 mg/kg body weight), medetomidine (0.5 mg/kg body weight) and fentanyl (0.05 mg/kg body weight). In the ferric chloride model, an overall number of 21 mice was studied.
The common carotid artery was dissected free and the mice were injected intravenously 30 minutes before carotid injury with GPVI-CD39 (3 mg/kg body weight) or its control and with GP1bα-488 (Emfret Analytics, Eibelstadt, Germany) for platelet visualization. The carotid was exteriorized and injured by topical application of a filter paper saturated with 15% ferric chloride for 1 minute. Thrombus formation in arteries was monitored for 20 minutes or until complete occlusion (stop of blood flow for >1 min). Digital films and images were recorded with a Nikon eclipse intravital microscope and analysed offline.

[6] = Pharmacokinetic analysis: protein concentration in plasma by Fc-specific sandwich ELISA; type: in vivo, mouse; settings: mice, 4 mg/kg IV
Description: (§3) ale and female wild type C57BL/6J mice of the age of 12-22 weeks were used in this small scale study. An overall number of 9 mice were investigated. GPVI-CD39 or solCD39 were applied in a volume of 5 ml/kg into the right tail vein. At time points indicated in the figure blood sampling was performed by incision of the left tail vein using 25 μl heparinized capillaries. Blood samples were recovered by centrifugation at 2400×g for 10 min. The upper plasma phase was transferred to fresh tubes and stored frozen at −20° C.
The concentration of GPVI-CD39 or Fc control protein in plasma samples was determined by Fc-specific sandwich ELISA. Wells of a MaxiSorp 96-well plate (Thermo Fisher Scientific, Waltham, Mass.) were coated with 0.1 μg/well goat-anti-human Fcγ antibody. Wells were washed three times with phosphate-buffered saline and tween-20 (PBST) between incubations. After blocking with 3% skimmed milk in PBST wells were incubated for 1 h with 50 μl of plasma from GPVI-CD39 treated (1:200) or Fc (1:500) treated mice diluted in PBST. Wells were incubated for 1 h with 100 μl of 80 ng/ml goat-anti-human IgG (H+L)-POD detection antibody. POD activity was visualized using 100 μl of Ultra TMB-ELISA substrate (Thermo Fisher Scientific, Waltham, Mass.) and signal intensities were read with a Tecan Infinite F200 ELISA reader.

[7] = ADPase activity in plasma samples from the pharmacokinetic study; type: in vivo, mouse; settings: mice, IV 4 mg/kg GPVI-CD39 or 2 mg/kg solCD39, up to 48 h
Description: as §2, §3

[8] = system: C57BL/6J mice; experiment: In vivo tail bleeding time in mice; design: species or system mouse; settings: 15 min after IV 13 nmol/kg (4 mg/kg GPVI-CD39, 2 mg/kg GPVI-Fc), versus vehicle or buffer
Description: Test or control substances were applied into the tail vein of C57BL/6J mice. Animals were anesthetized by intraperitoneal injection of 0.5 mg/kg medetomidine, 5 mg/kg midazolame, and 0.05 mg/kg fentanyl. 10 min after protein delivery a blood sample of 20 μl was drawn for analysis of recombinant protein content and ADPase activity using a heparinized capillary. 15 min after protein application the distal 2 mm of the tail were cut off, the tail was immediately immersed into pre-warmed PBS (37° C.) buffer and time-monitored until bleeding stopped for at least 30 s. […] Animals were sacrificed and a final blood sample stored for analysis.

[9] = 103 μg/ml collagen secreted by human fibroblasts (VitroCol)
[10] = human plaque material 333 μg/ml

Molecule | PFA-200 closure time, P2Y cartridges ([1]; 1.9 μM) | PFA-200 closure time, COL/ADP cartridges [1] | PFA-200 closure time, COL/EPI cartridges [1] | mean ADPase activity (specific activity) [2] | inhibition of ADP-induced platelet aggregation [3] | inhibition of collagen-induced platelet aggregation ([3]; 12 μg/ml collagen isolated from rabbit aorta) | inhibition of collagen-induced platelet aggregation [3, 9] | IC50 ([3]; human plaque material 333 μg/ml, approximate, read-out: IC50 of inhibition of platelet aggregation triggered by human plaque material) | inhibition of platelet aggregation triggered by human plaque material [3, 10] | inhibition of plaque-induced platelet aggregation [4] | time to vessel occlusion ([5]; 15% ferric chloride carotid injury, 3 mg/kg (10 nmol/kg) IV) | effect on ferric chloride-induced thrombus formation / occlusion time ([5]; 15% ferric chloride, 10 nmol/kg IV (3 mg/kg GPVI-CD39, 1.5 mg/kg GPVI-Fc), versus vehicle) | PFA-200 closure time, P2Y cartridges ([1]; 47 nmol/L) | PFA-200 closure time, P2Y cartridges ([1]; 217 nmol/L) | plasma concentration time course [6] | mean plasma concentration ([6]; 5 min after application) | plasma concentration ([6]; after 48 h) | ADPase activity in plasma over time [7] | tail bleeding time [8]
CCCSc1nc(N[C@@H]2C[C@H]2c2ccc(F)c(F)c2)c2nnn([C@@H]3C[C@H](OCCO)[C@@H](O)[C@H]3O)c2n1 [ticagrelor, reference compound] | prolongations | No significant differences between groups |  |  |  |  |  |  |  |  |  |  |  |  |  |  |  |  | 
CC(=O)Oc1ccccc1C(=O)O [ASA, acetyl salicylic acid, reference compound] |  | No significant differences between groups | inhibited the closure of the aperture completely; also recorded: significantly (p=0.04) prolonged |  |  |  |  |  |  |  |  |  |  |  |  |  |  |  | 
B1 |  | no significant increase of closure times; also recorded: No significant differences between groups | no significant increase of closure times | 11.2±4.0 U/mg | Effective inhibition; also recorded: markedly reduces ADP-induced platelet aggregation | highly significant, dose-dependent inhibition; also recorded: reduces platelet aggregation more strongly than GPVI-Fc alone | inhibited platelet aggregation significantly; also recorded: reduces platelet aggregation more strongly than GPVI-Fc alone | ~30 nM | dose-dependent inhibition | 81% | 1083 s | fully effective in inhibiting arterial thrombosis; also recorded: strongly delayed ferric chloride-induced thrombus formation | statistically significant increase in closure time | statistically significant increase in closure time | decreased rapidly in the course of two hours | 95 µg/mL | 6 µg/mL | diminished rapidly during the first 60 min but was still detectable at very low levels after 2 d | no differences; also recorded: no effect on systemic bleeding times
B2 |  | No significant differences between groups |  |  | no inhibitory effect |  | minor inhibition |  | markedly and significantly less effective than GPVI-CD39 |  |  |  |  |  |  |  |  |  | no differences
